From paper PMC4113718 (Biochemistry, 2013)
Read-outs that look alike come from different tables or passages of the source.

What was measured:
[1] = target: T1, N-Terminal FITC labeled ubiquitin (UniProt P0CG47 1-76, FITC on the N-terminus); test: binding of a fluorescent ligand to cells
[2] = target: T1, N-Terminal FITC labeled ubiquitin; test: binding of a fluorescent ligand to cells; remark: listed apart in the source

B1: CXC chemokine receptor (CXCR) 4 on BV-2 cells (receptor, mouse (endogenous in BV-2), UniProt P70658 1-359, looked up)
chain: MEPISVSIYTSDNYSEEVGSGDYDSNKEPCFRDENVHFNRIFLPTIYFIIFLTGIVGNGLVILVMGYQKKLRSMTDKYRLHLSVADLLFVITLPFWAVDAMADWYFGKFLCKAVHIIYTVNLYSSVLILAFISLDRYLAIVHATNSQRPRKLLAEKAVYVGVWIPALLLTIPDFIFADVSQGDISQGDDRYICDRLYPDSLWMVVFQFQHIMVGLILPGIVILSCYCIIISKLSHSKGHQKRKALKTTVILILAFFACWLPYYVGISIDSFILLGVIKQGCDFESIVHKWISITEALAFFHCCLNPILYAFLGAKFKSSAQHALNSMSRGSSLKILSKGKRGGHSSVSTESESSSFHSS
Work on B1 yielded a Kd [1] of 119 nM and a Kd [2] of 154 nM.
